We go through twelve molecules from patent publication US20200247855A1, “THERAPY AND DIAGNOSTICS” (OXFORD UNIVERSITY INNOVATION LIMITED, priority 2017, published 2020).

One assay addresses T1, CCL8_HUMAN (Homo sapiens, UniProt P80075).
T1 sequence (P80075 24-99): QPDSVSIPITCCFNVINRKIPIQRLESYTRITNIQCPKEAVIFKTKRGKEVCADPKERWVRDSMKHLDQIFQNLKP
In words: Biolayer interferometry (BLI) binding. The note with it: for CCL8 binding (bound or not): 300 nM or 600 nM CCL8. Here is the method:
(§1) Table 1. Tick CKBPs described in PCT/GB2017/050563 and [17]. Tick peptide sequences isolated in yeast surface display fluorescent-activated cell sorting (FACS) screens using a labelled chemokine. Identity with Evasin-1, 4 or 3 was calculated using BLAST. Abbreviations: IXORI—Ixodes ricinus, RHISA—Rhipicephalus sanguineus, AMBMA—Amblyomma maculatum, AMBPA—Amblyomma parvum, AMBTR—Amblyomma triste, AMBAM—Amblyomma americanum, AMBCA—Amblyomma cajennense, RHIPU—Rhipicephalus pulchellus. Table 2A-C. Binding characteristics of tick CKBPs previously disclosed (PCT/GB2017/050563 and [17]). All members of the human chemokine family[164] are listed in column 1. Binding to human chemokines was determined for 14 tick CKBPs using biolayer interferometry (BLI) with calculated Kd shown as Molar (Moles/Litre). Binding data for 17 other novel tick CKBPs was assayed using yeast surface display[17,166],with positive binding results shown as “YES”. For biolayer interferometry, His-tagged purified tick CKBP was bound to a Ni-NINTA sensor on an OctetRed® 384 system, and then binding to each chemokine listed (with the exception of CCL25, CCL26, CXCL16, CXCL17, CXCL4L1, XCL2) was assayed in a cross-binding screen at a chemokine concentration of 300 nM as described. For those chemokines showing binding to a tick CKBP in the cross-binding screen, binding assays were repeated using different doses of chemokine. Association, equilibrium and dissociation data were analysed using Octet software to create corresponding fitted curves, and used to calculate Kd. For yeast surface display, (YSD) background fluorescence was controlled for by using either an empty vector or by omitting the chemokine (i.e. using streptavidin-Alexa647 alone). An arbitrary threshold of >3 fold over background mean fluorescence intensity was chosen to describe confirmed re-tests. Where binding was detected data are indicated as “YES”. […] For yeast surface display data, empty cells represent chemokines that were not tested. Binding data published in relation to previously described tick CKBPs (Evasins-1, 4 and 3) is also shown for comparison in each of FIGS. 2A-C, with the relevant data obtained from publications: [20-22,32]. Table 3: Neutralisation of human chemokines by tick CKBPs previously disclosed (PCT/GB2017/050563 and [17]). Neutralising activity was determined using a quantitative THP1 cell migration assay in a 96-well Boyden chamber with chemokine in the bottom chamber as described. Cells migrating through to the bottom chamber at 4 hours were counted using flow cytometry in a 96 well plate format. IC50 for neutralisation was determined at the chemokine EC80 dose as determined using a range of tick CKBP concentrations. Data was analysed using GraphPad Prism to determine IC50, which is shown as Molar (Moles/Litre). Empty cells represent experiments not done. Table 4—Other previously described tick CKBPs. Tick CKBPs that were also described in PCT/GB2017/050563 and Singh et al. are indicated in “Notes”. Table 5.—Novel tick CKBPs of the invention. Table 6. […] The peptide sequence prefix indicates the identity, and suffix indicate the tick species as follows: AMBCA, Amblyomma cajennense and IXORI, Ixodes ricinus. […] Certain tick peptides e.g. P1074_IXORI were recovered from screens performed with more than one chemokine. Individual yeast clones recovered from the library were re-tested using a FACS (fluorescence activated cell sorting), experiment. The binding of the peptide to the chemokine was assayed by measuring the percent (%), of yeast cells expressing the given peptide that exceeded a background threshold set by measuring the fluorescence of the yeast library pool treated with streptavidin-[…] alone. When more than one independent yeast clone was isolated for a given peptide-chemokine combination, the mean percent shift was calculated and reported in column 3. […]
On the technique in general: BLI is a label-free optical method that tracks binding on a fibre tip over time.

The next assay concerns chemokines. The note with it: list of chemokines bound, from the literature [18,20-22]; cited from earlier work.
For another assay, the target named is CCL11_HUMAN (Homo sapiens, UniProt P51671). As to the kind of experiment: Biolayer interferometry (BLI) binding. The protocol:
as §1

In a further assay the target is CCL13_HUMAN (Homo sapiens, UniProt Q99616). In words: Biolayer interferometry (BLI) binding. Here is the method:
as §1

In the next assay the target is CCL2_HUMAN (Homo sapiens, UniProt P13500). In words: Biolayer interferometry (BLI) binding. Here is the method:
as §1

In the next assay the target is T2, CCL4L1_HUMAN (Homo sapiens, UniProt Q8NHW4).
T2 sequence (Q8NHW4 24-92): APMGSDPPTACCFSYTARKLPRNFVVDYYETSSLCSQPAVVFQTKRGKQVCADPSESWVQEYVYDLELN
In words: Biolayer interferometry (BLI) binding. Here is the method: as §1

The next assay has as its target T3, CCL4_HUMAN (Homo sapiens, UniProt P13236).
T3 sequence (P13236 24-92): T2 sequence (Q8NHW4 24-92) with G47S
In words: Biolayer interferometry (BLI) binding. Here is the method: as §1

A further assay concerns the target CCL7_HUMAN (Homo sapiens, UniProt P80098). In words: Biolayer interferometry (BLI) binding. Here is the method: as §1

Where a chain is given by its changes, count along the chain named. Names may count otherwise. “Also recorded” adds a separate entry of the source.

Chain of CCL11_HUMAN (P51671 24-97): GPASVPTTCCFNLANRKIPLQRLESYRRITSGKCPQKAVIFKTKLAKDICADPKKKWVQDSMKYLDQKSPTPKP
Chain of CCL2_HUMAN (P13500 24-99): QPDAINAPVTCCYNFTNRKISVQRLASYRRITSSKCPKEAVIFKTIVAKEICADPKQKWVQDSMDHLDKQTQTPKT
Chain of CCL7_HUMAN (P80098 24-99): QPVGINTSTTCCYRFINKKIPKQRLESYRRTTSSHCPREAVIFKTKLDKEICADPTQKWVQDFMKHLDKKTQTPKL
Chain of CCL13_HUMAN (Q99616 17-98): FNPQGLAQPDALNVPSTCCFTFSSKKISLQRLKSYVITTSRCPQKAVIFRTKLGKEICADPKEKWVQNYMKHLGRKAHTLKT

B1: Evasin-1 peptide encoded by EZ406190.1: Evasin-1 peptide variant K92E encoded by nucleotide sequence EZ406190.1 (protein)
chain: EDDEDYGDLGGCPFLVAENKTGYPTIVACKQDCNGTTETAPNGTRCFSIGDEGLRRMTANLPYDCPLGQCSNGDCIPKETYEVCYRRNWRDEKN
Consider B1, for which, in the assay with CCL8_HUMAN, the “CCL8 binding (bound or not)” value is given as “does not bind CCL8”.

B2: AMA-01: previously described tick CKBP, Amblyomma maculatum (protein, listed as Amblyomma maculatum)
chain: ECEESDTSESTECSTEDYSNRIRDNETCFIGALNTTGHPVPVGCTLDCGNSTRYLPNGTECIDLTQQASDVMQSDVPYYCPIGLCANGICKRSGLELNCWHDMPPPVSTDTAIENPTTSISSSAKL
With B2, the “Previously described chemokine binding” value with chemokines was “CCL11, CCL24,; also recorded: CCL26, CCL2,; also recorded: CCL8, CCL7”.

B3: IHO-01: previously described tick CKBP, Ixodes holocyclus (protein, listed as Ixodes holocyclus)
chain: AFVSSSTEVEIGSTSEHNSNETDEYGYDYNADGLGCPVVGIGGLDNKTWHPNCTNECPNSTKLFLLENGTP
As to B3, the “Previously described chemokine binding” value in the assay on chemokines is “CCL11, CCL24, and CCL26, CCL2, and CCL8”.

B4: ACA-02: previously described tick CKBP, Amblyomma cajennense (protein)
chain: GIEGSGNLATSHEMDDCLDDNSTCVIQTLNTTGEPRPVGCVLKCKNSTQHLANGTECLGIPELAGVRMQYNVSYTCAVGLCNAGVCERTGLWIGCWQNEPPPNSTDVTTTAPTTTTASTSSV
modifications: Amblyomma cajennense
B4: in the assay with chemokines, the “Previously described chemokine binding” value is given as “CCL11, CCL24,; also recorded: CCL26”.

B5: ATR-02: previously described tick CKBP, Amblyomma triste (protein)
chain: GNEVSDPPLTDEDCEYYDPSEDNITCSIRSLNTTGRPIPVGCLATCENSTRRLHNGTECLGISDQVANRMQGNVTYTCPVGLCYRGVCQRNGLGIDCWHNTPPPNSTNVTTNASTTPLPTSSRDL
modifications: Amblyomma triste
For the molecule B5, the “Previously described chemokine binding” value with chemokines is “CCL11, CCL24,; also recorded: CCL26, CCL2,; also recorded: CCL8, CCL7”.

B6: RPU-02: previously described tick CKBP, Rhipicephalus pulchellus (protein, listed as Rhipicephalus pulchellus)
chain: CEVQNTTLAEEDYDTGCGYNIVITKNKTLVVNCTMDCQPKMLMNESEPCLFNSSVPYDHMQPHHNYTCMEGICKNGTCVSPSNNITCWLPPPPVRYYPNETMVTSTIEPEA
Consider B6, for which the “Previously described chemokine binding” value in the assay with chemokines was “CCL11, CCL24,; also recorded: CCL26, CCL2,; also recorded: CCL8, CCL7”.

B7: SEQ ID NO: 82: substituted hybrid with greater extent of P672_RHIPU sequence in Evasin-1 (protein)
chain: VCEVSEQEGVGEDNATEDEDYEDFFKPVTCYFANSTVGPLRPPNCTVVCTNNTAWWNDTKSDGGHCYSEYRPEKRTHSREIYNCTIGVCGNGDCIPKETYEVCYRRNWRDEKN
modifications: tick CKBP sequence
B7: in the assay with CCL8_HUMAN, the “CCL8 binding (bound or not)” value is reported as “having a CCL8-binding function”.

B8: SEQ ID NO: 83: substituted hybrid with greater extent of P672_RHIPU sequence in Evasin-1 (protein)
chain: VCEVSEQEGVGEDNATEDEDYEDFFKPVTCYFANSTVGPLRPPNCTVVCTNNTAWWNDTKSDGGHCFSIGDEGLRRMTANLPYDCPLGQCSNGDCIPKETYEVCYRRNWRDEKN
modifications: tick CKBP sequence
Consider B8, for which the “CCL8 binding (bound or not)” value with CCL8_HUMAN is “having a CCL8-binding function”.

B9: P1183_AMBTR: tick CKBP, Amblyomma triste (protein)
chain: EAPKDDFEYDGGCPFVVLDNGTHVKPAGCSHLCNGAPETLDNIECYNVTEEVAKRMTPGIPYACWLGWCSKGECKRDNRTEVCYRGSEEE
modifications: Amblyomma triste
As usually defined, the Kd is the equilibrium constant for the complex coming apart. As for B9, the Kd stood at 8.5 nM with CCL11_HUMAN; 5.7 nM in the assay with CCL13_HUMAN; 12 nM with CCL2_HUMAN; 48 nM in the assay with CCL4L1_HUMAN; 78 nM with CCL4_HUMAN; 5.4 nM with CCL7_HUMAN. Further, the Kd with CCL8_HUMAN (read-out: Kd, CCL8_HUMAN) amounted to 1100 nM.

B10: AAM-01: previously described tick CKBP, Amblyomma americanum (protein, listed as Amblyomma americanum)
chain: ESEGSVSTETEVISYEDDCQDDNSTCFIQTLNTTGEPRPVGCILECENSTQRLPNGTECLGLPGLAAVKMQRNVSYTCSVGLCNGEGVCDRTGLWIGCWTNTPPPNSTNVTTKPPTTTTASPGTG
Turning to B10, in the assay on chemokines, the “Previously described chemokine binding” value is reported as “CCL11, CCL24,; also recorded: CCL26, CCL2,; also recorded: CCL8, CCL7”.

B11: EVA1(P67222-32): hybrid protein: P672 (E22-F32) region swapped into the corresponding segment of EVA1_RHISA (protein)
chain: EDDEDYEDFFKPVTCYFLVAENKTGYPTIVACKQDCNGTTETAPNGTRCFSIGDEGLRRMTANLPYDCPLGQCSNGDCIPKETYEVCYRRNWRDKKN
modifications: EVA1 containing P672 E22-E32
notes: hybrid protein: P672 (E22-F32) region swapped into the corresponding segment of EVA1_RHISA
Turning to B11, in the assay with CCL8_HUMAN, the “CCL8 binding (bound or not)” value is “bound CCL8”.

B12: IRI-01: previously described tick CKBP, Ixodes ricinus (protein, listed as Ixodes ricinus)
chain: GPAPSAKENEKAPLCLPQESLINNRDPNGCNYQLLPYFTEDGMGGGFLAIDCSKSCPEGTHETVVDGNS
As to B12, the “Previously described chemokine binding” value in the assay on chemokines was “CCL11, CCL24,; also recorded: CCL26, CCL2,; also recorded: CCL8, CCL7”.
